Source: patent US5789380A, “Agents for inhibiting accumulation of visceral fat” (Nisshin Flour Milling Co., Ltd., priority 1996, dated 1998)

T1: human pancreatic α-amylase (human, UniProt P04746)
T1 sequence: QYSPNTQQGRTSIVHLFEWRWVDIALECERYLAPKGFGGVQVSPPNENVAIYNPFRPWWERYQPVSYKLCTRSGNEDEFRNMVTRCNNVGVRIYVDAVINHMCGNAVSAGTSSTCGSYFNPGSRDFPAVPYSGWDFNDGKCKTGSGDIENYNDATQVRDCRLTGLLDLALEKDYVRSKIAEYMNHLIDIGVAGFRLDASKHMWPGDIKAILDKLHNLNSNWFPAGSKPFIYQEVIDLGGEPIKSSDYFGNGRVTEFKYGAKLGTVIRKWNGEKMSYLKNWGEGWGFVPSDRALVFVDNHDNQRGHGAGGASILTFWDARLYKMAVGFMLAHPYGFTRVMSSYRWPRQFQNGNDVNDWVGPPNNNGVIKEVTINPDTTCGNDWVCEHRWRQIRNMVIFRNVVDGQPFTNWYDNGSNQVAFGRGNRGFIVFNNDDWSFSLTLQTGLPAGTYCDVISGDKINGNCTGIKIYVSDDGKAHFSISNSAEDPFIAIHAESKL


What was measured:
[1] = molecular target: T1, human pancreatic α-amylase; assay: cell-based or functional assay
[2] = tested on: human pancreatic α-amylase; assay: Determination of inhibitory activity against human pancreatic α-amylase; format: biochemical; conditions: 1 U = amount inhibiting 50% of amylase activity, pH 6.9, 37° C., soluble starch
Experimental: The numerical values as given herein for the amylase inhibitory activity are determined by the following method, which are represented in terms of the inhibitory activity value against human pancreatic α-amylase.
Determination of inhibitory activity against human pancreatic α-amylase:
An aqueous solution of a sample and human pancreatic α-amylase were added to 20 mM piperazine-N,N'-bis(2-ethanesulfonic acid) buffer (pH 6.9) containing 50 mM NaCl, 5 mM CaCl2 and 0.02% egg white albumin. The mixture was allowed to stand at 37° C. for 30 min. and then mixed with 0.5 ml of a 1.5% soluble starch solution (pH 6.9). The resulting solution was allowed to react while maintaining at 37° C. for 10 min. and the reaction was then ceased by adding 2.5 ml of a solution (0.08M HCl and 0.4M acetic acid). To 0.2 ml of the reaction solution was added 2.5 ml of an iodine solution (0.05% KI and 0.005% iodine), and the mixture was measured for absorbance at 660 nm. The amylase was used in an amount sufficient to reduce 80% absorbance when no sample solution was contained and the amount of the amylase inhibitor sufficient to inhibit 50% amylase activity at this time was expressed as 1 amylase inhibitory unit (U).

| Molecule | Amylase inhibitory activity (U/mg) [1] | Amylase inhibitory activity [2] | Amylase inhibitory activity ([2]; listed as 0.58 AI) |
| --- | --- | --- | --- |
| 0.19 AI (other) SGPWMCYPGQAFQVPALPACRPLLRLQCNGSQVPEAVLRDCCQQLAHISEWCRCGALYSMLDSMYKEHGAQEGQAGTGAFPRCRREVVKLTAASITAVCRLPIVVDASGDGAYVCKDVAAYPDA | 20300 U/mg | – | – |
| 0.26 AIa (other) SGPWMCYPGYAFKVPALPGCRPVLKLQCNGSQVPEAVLRDCCQQLADISEWCRCGALYSMLDSMYKEHGVQEGQAGTGAFPSCRREVVKLTAASITAVCKLPIVIDASGDGAYVCKGVAAYPDA | 26100 U/mg | – | – |
| 0.26 AIb (other) SGPWMCYPGYAFKVPALPGCRPVLKLQCNGSQVPEAVLRDCCQQLADISEWCRCGALYSMLDSMYKEHGVQEGQAGTGAFPSCRREVVKLTAASITAVCKLPIVIDASGDGAYVCKGVAAYP | 20500 U/mg | – | – |
| 0.28 AI (other) SGPWSWCNPATGYKVSALTGCRAMVKLQCVGSQVPEAVLRDCCQQLADINNEWCRCGDLSSMLRAVTQELGVREGKEVLPGCRKEVMKLTAASVPEVCKVPIPNPSGDRAGVCYGDWCAYPDV | 840 U/mg | – | – |

The remaining lines, values ahead:

| Amylase inhibitory activity (U/mg) [1] | Amylase inhibitory activity [2] | Amylase inhibitory activity ([2]; listed as 0.58 AI) | Molecule |
| --- | --- | --- | --- |
| – | 3,940 U/mg | less amylase inhibitory activity | 0.53 AI: known wheat amylase inhibitor protein composed of two subunits, each identified as SEQ ID NO:4 (protein) chain 1: SGPWMCYPGQAFQVPALPGCRPLLKLQCNGSQVPEAVLRDCCQQLADISEWPRCGALYSMLDSMYKEHGVSEGQAGTGAFPSCRREVVKLTAASITAVCRLPIVVDASGDGAYVCKDVAAYPDA chain 2: SGPWMCYPGQAFQVPALPGCRPLLKLQCNGSQVPEAVLRDCCQQLADISEWPRCGALYSMLDSMYKEHGVSEGQAGTGAFPSCRREVVKLTAASITAVCRLPIVVDASGDGAYVCKDVAAYPDA |
| 3940 U/mg | – | – | 0.53 AI (other) SGPWMCYPGQAFQVPALPGCRPLLKLQCNGSQVPEAVLRDCCQQLADISEWPRCGALYSMLDSMYKEHGVSEGQAGTGAFPSCRREVVKLTAASITAVCRLPIVVDASGDGAYVCKDVAAYPDA |
